B1: iRhom2 wild type (HA-tagged) [human] / V5-tagged FRMD8 [not stated] (parent complex)
chain 1: MASADKNGGSVSSVSSSRLQSRKPPNLSITIPPPEKETQAPGEQDSMLPEGFQNRRLKKSQPRTWAAHTTACPPSFLPKRKNPAYLKSVSLQEPRSRWQESSEKRPGFRRQASLSQSIRKGAAQWFGVSGDWEGQRQQWQRRSLHHCSMRYGRLKASCQRDLELPSQEAPSFQGTESPKPCKMPKIVDPLARGRAFRHPEEMDRPHAPHPPLTPGVLSLTSFTSVRSGYSHLPRRKRMSVAHMSLQAAAALLKGRSVLDATGQRCRVVKRSFAFPSFLEEDVVDGADTFDSSFFSKEEMSSMPDDVFESPPLSASYFRGIPHSASPVSPDGVQIPLKEYGRAPVPGPRRGKRIASKVKHFAFDRKKRHYGLGVVGNWLNRSYRRSISSTVQRQLESFDSHRPYFTYWLTFVHVIITLLVICTYGIAPVGFAQHVTTQLVLRNKGVYESVKYIQQENFWVGPSSIDLIHLGAKFSPCIRKDGQIEQLVLRERDLERDSGCCVQNDHSGCIQTQRKDCSETLATFVKWQDDTGPPMDKSDLGQKRTSGAVCHQDPRTCEEPASSGAHIWPDDITKWPICTEQARSNHTGFLHMDCEIKGRPCCIGTKGSCEITTREYCEFMHGYFHEEATLCSQVHCLDKVCGLLPFLNPEVPDQFYRLWLSLFLHAGVVHCLVSVVFQMTILRDLEKLAGWHRIAIIFILSGITGNLASAIFLPYRAEVGPAGSQFGLLACLFVELFQSWPLLERPWKAFLNLSAIVLFLFICGLLPWIDNIAHIFGFLSGLLLAFAFLPYITFGTSDKYRKRALILVSLLAFAGLFAALVLWLYIYPINWPWIEHLTCFPFTSRFCEKYELDQVLH
chain 2: MDGTEGSAGQPGPAERSHRSSVSSVGARAADVLVYLADDTVVPLAVENLPSLSAHELHRAVREVLQLPDIALDVFALWLVSPLLEVQLKPKHQPYKLGRQWPELLLRFTSAPDDDVAMDEPFLQFRRNVFFPKRRELQIHDEEVLRLLYEEAKGNVLAARYPCDVEDCEALGALVCRVQLGPYQPGRPAACDLREKLDSFLPAHLCKRGQSLFAALRGRGARAGPGEQGLLNAYRQVQEVSSDGGCEAALGTHYRAYLLKCHELPFYGCAFFHGEVDKPAQGFLHRGGRKPVSVAISLEGVHVIDSREKHVLLGLRFQELSWDHTSPEEEEPILWLEFDGDSEGTPVNKLLKIYSKQAELMSSLIEYCIELSQAAEPAGPQDSATGSPSDPSSSLAPVQRPKLRRQGSVVSSRIQHLSTIDYVEDGKGIRRVKPKRTTSFFSRQLSLGQGSYTVVQPGDSLEQG

Variants of: B1
Test: co-immunoprecipitation (HA-IP) with western blot quantification; iRhom1/2 DKO HEK293T cells co-transfected with V5-tagged FRMD8; three independent experiments; read off a plot

**Q.** How did the ratio to parent turn out when chain 1 P233A, chain 1 R234A, chain 1 R235A, chain 1 K236A, chain 1 R237A, chain 1 M238A, chain 1 S239A was run?
**A.** ~1.1

**Q.** How did the ratio to parent turn out when chain 1 P233A, chain 1 R234A, chain 1 R235A, chain 1 K236A, chain 1 R237A, chain 1 M238A was run?
**A.** ~1.05

**Q.** chain 1 S239A was tested. Which ratio to parent did it give?
**A.** ~1.2
